Measurements from US8663912B2, “Fluorogenic substrate for ADAMTS13” (Washington University, priority 2011, dated 2014).
* marks the point of attachment. X1 = CC1(C)C(/C=C/C2=C(Cl)C(=C/C=C3/N(CCCCCC(=O)*)c4ccc5cc(S(=O)(=O)O)ccc5c4C3(C)C)/CCC2)=[N+](CCCS(=O)(=O)[O-])c2ccc(N(CCCS(=O)(=O)O)CCCS(=O)(=O)O)cc21; X2 = CC(C)(C)c1cc(/C=C/C=C2\N(CCCS(=O)(=O)O)c3ccc(S(=O)(=O)O)cc3C2(C)CCCC(=O)CCN2C(=O)CC(*)C2=O)c2ccc(N(CCCS(=O)(=O)[O-])CCCS(=O)(=O)O)cc2[o+]1

Test: Solubility of substrate in water
Type: physicochemical
Details: sodium salt
Description: The present inventors have tested several combinations of donor and quencher groups chosen for lack of interference from blood proteins. For example, modification at Cys^1610 with Alexa Fluor 594 maleimide (abs 590 nm, em 617 nm, ε 96,000) and at N-terminal. […] In one embodiment, a substrate of the present teachings is modified at Cys^1610 with DyLight 633-maleimide (Thermo, abs 638 nm, em 658 nm, ε 170,000), and at N-terminal Gly with IRDye QC-1 N-hydroxysuccinimidyl ester (LI-COR, abs 737 nm, ε 96,000). […] After RP-HPLC purification the doubly-labeled substrate (FRETS-rVWF71) is soluble at >50 μM.
In these experiments, DyLight 633 maleimide (Thermo Scientific, Waltham, Mass.) 1 mg/100 μL in dimethyl sulfoxide (DMSO) was added dropwise with stirring to peptide VWF71 (10 mg) in ≦2 mL of 100 mM sodium phosphate, pH 7.1, in the dark, and stirred overnight at room temperature. The product DyLight 633-rVWF71 was purified by HPLC on C18 using the TEAA/acetonitrile solvent system as described for the purification of VWF71. DyLight 633-rVWF71 was lyophilized and desalted on a small column of PD-10 in ≦2 mL of 100 mM sodium phosphate, pH 7.9. IRDye QC-1 N-hydroxysuccinimide ester 0.5 mg in 100 μL DMSO was added dropwise with stirring and the solution was stirred overnight at room temperature protected from light. […]

“X1-GQAPNLVYMVTGC(X2)PASDEIRRLPGDIQVVPIGVGPNANVQELERIGWPNAPILIQDFETLPREAPDLVLQR [FRETS-rVWF71]” gave a solubility of over 250 µM.
